PMC3101628 (Nature structural & molecular biology, 2011)

Tests used:
Assay in all cases: SEC
[1] = target: T1, S. cerevisiae ribonucleotide reductase RR1 (ScRR1), wild type (S. cerevisiae, UniProt P21524 1-888)
T1 sequence: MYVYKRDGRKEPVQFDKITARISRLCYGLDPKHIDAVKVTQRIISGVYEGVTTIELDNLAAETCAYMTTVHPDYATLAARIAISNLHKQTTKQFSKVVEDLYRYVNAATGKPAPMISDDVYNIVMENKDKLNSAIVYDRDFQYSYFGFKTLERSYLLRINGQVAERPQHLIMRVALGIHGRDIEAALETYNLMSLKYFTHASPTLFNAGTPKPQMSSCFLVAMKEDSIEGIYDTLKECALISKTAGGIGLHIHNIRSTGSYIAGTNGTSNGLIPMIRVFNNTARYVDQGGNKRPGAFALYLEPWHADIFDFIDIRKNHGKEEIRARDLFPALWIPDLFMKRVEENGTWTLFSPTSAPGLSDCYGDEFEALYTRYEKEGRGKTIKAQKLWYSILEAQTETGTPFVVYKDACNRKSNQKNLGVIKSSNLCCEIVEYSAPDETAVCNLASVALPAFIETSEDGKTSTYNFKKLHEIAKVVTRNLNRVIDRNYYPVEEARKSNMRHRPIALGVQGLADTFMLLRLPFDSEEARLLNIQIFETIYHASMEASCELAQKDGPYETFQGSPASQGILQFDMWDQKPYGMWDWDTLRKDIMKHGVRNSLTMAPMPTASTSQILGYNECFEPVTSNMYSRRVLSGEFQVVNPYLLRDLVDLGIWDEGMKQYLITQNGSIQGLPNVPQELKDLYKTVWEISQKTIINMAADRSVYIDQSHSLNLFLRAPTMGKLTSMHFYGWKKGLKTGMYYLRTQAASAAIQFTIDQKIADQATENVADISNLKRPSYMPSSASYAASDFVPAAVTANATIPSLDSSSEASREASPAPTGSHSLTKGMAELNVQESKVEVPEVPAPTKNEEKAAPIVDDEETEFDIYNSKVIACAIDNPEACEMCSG

[2] = target: T2, hRRM1 with the first 74 residues deleted (t-hRRM1) (human, UniProt P23921 75-792)
T2 sequence (looked up): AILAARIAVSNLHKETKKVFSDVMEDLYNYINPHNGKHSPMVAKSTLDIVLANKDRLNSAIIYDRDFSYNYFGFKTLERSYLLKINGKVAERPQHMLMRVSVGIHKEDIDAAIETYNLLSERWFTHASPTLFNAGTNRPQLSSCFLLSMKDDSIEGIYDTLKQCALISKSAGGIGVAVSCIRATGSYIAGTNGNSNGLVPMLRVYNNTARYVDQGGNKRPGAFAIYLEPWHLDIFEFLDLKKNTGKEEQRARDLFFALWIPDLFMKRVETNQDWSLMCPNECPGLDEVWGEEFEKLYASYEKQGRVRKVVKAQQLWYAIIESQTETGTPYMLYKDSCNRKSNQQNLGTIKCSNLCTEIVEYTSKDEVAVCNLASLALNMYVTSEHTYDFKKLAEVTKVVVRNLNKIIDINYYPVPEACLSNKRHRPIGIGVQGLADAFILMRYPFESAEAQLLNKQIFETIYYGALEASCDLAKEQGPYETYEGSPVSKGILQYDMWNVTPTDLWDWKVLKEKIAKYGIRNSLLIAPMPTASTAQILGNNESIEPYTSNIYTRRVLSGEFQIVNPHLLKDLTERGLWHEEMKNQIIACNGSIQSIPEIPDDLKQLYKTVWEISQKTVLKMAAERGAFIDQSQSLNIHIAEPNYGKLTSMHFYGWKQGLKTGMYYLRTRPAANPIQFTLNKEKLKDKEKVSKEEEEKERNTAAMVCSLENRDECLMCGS

[3] = target: the molecule itself

B1: yeast RR2●RR4 hetero-dimer (ScRR2●ScRR4) (complex, S. cerevisiae)
chain 1: MPKETPSKAAADALSDLEIKDSKSNLNKELETLREENRVKSDMLKEKLSKDAENHKAYLKSHQVHRHKLKEMEKEEPLLNEDKERTVLFPIKYHEIWQAYKRAEASFWTAEEIDLSKDIHDWNNRMNENERFFISRVLAFFAASDGIVNENLVENFSTEVQIPEAKSFYGFQIMIENIHSETYSLLIDTYIKDPKESEFLFNAIHTIPEIGEKAEWALRWIQDADALFGERLVAFASIEGVFFSGSFASIFWLKKRGMMPGLTFSNELICRDEGLHTDFACLLFAHLKNKPDPAIVEKIVTEAVEIEQRYFLDALPVALLGMNADLMNQYVEFVADRLLVAFGNKKYYKVENPFDFMENISLAGKTNFFEKRVSDYQKAGVMSKSTKQEAGAFTFNEDF
chain 2: MEAHNQFLKTFQKERHDMKEAEKDEILLMENSRRFVMFPIKYHEIWAAYKKVEASFWTAEEIELAKDTEDFQKLTDDQKTYIGNLLALSISSDNLVNKYLIENFSAQLQNPEGKSFYGFQIMMENIYSEVYSMMVDAFFKDPKNIPLFKEIANLPEVKHKAAFIERWISNDDSLYAERLVAFAAKEGIFQAGNYASMFWLTDKKIMPGLAMANRNICRDRGAYTDFSCLLFAHLRTKPNPKIIEKIITEAVEIEKEYYSNSLPVEKFGMDLKSIHTYIEFVADGLLQGFGNEKYYNAVNPFEFMEDVATAGKTTFFEKKVSDYQKASDMSKSATPSKEINFDDDF
B1: binds [1].

B2: human ribonucleotide reductase small subunit hRRM2 (enzyme, UniProt P31350 1-389, looked up)
chain: MLSLRVPLAPITDPQQLQLSPLKGLSLVDKENTPPALSGTRVLASKTARRIFQEPTEPKTKAAAPGVEDEPLLRENPRRFVIFPIEYHDIWQMYKKAEASFWTAEEVDLSKDIQHWESLKPEERYFISHVLAFFAASDGIVNENLVERFSQEVQITEARCFYGFQIAMENIHSEMYSLLIDTYIKDPKEREFLFNAIETMPCVKKKADWALRWIGDKEATYGERVVAFAAVEGIFFSGSFASIFWLKKRGLMPGLTFSNELISRDEGLHCDFACLMFKHLVHKPSEERVREIIINAVRIEQEFLTEALPVKLIGMNCTLMKQYIEFVADRLMLELGFSKVFRVENPFDFMENISLEGKTNFFEKRVGEYQRMGVMSSPTENSFTLDADF
With B2 the binding result [2] was “binds” and the “stoichiometry N” value [3] was 2.
